Paper PMC9894130, “SV40 T-antigen uses a DNA shearing mechanism to initiate origin unwinding” (Proceedings of the National Academy of Sciences of the …, 2022)

Biological target: the molecule itself
Experiment: cryo-EM structure; T-Ag^131–627 incubated with AMP-PNP in the absence of DNA (apo form); 3D map at 5.6 Å, rigid-body docking of crystal structures of smaller fragments

B1: SV40 large T-Antigen helicase, residues 131-627 (T-Ag^131–627) (domain or fragment)
chain: KVEDPKDFPSELLSFLSHAVFSNRTLACFAIYTTKEKAALLYKKIMEKYSVTFISRHNSYNHNILFFLTPHRHRVSAINNYAQKLCTFSFLICKGVNKEYLMYSALTRDPFSVIEESLPGGLKEHDFNPEEAEETKQVSWKLVTEYAMETKCDDVLLLLGMYLEFQYSFEMCLKCIKKEQPSHYKYHEKHYANAAIFADSKNQKTICQQAVDTVLAKKRVDSLQLTREQMLTNRFNDLLDRMDIMFGSTGSADIEEWMAGVAWLHCLLPKMDSVVYDFLKCMVYNIPKKRYWLFKGPIDSGKTTLAAALLELCGGKALNVNLPLDRLNFELGVAIDQFLVVFEDVKGTGGESRDLPSGQGINNLDNLRDYLDGSVKVNLEKKHLNKRTQIFPPGIVTMNEYSVPKTLQARFVKQIDFRPKDYLKHCLERSEFLLEKRIIQSGIALLLMLIWYRPVAEFAQSIQSRIVEWKERLDKEFSLSVYQKMKFNVAMGIGVLD
notes: Simian Virus 40 large T-Antigen, residues 131-627; lacks the N-terminal DnaJ-homology domain and the extreme C-terminal host-range determination region; holds OBD, ZBD and AAA+ domains; also called J-domain truncated T-Ag; source: expressed in E. coli (details in the SI Appendix)
- stoichiometry N: 6
